From US20230147840A1 (Chugai, published 2023)
Read-outs that look alike come from different tables or passages of the source.

T1: Human CD3eg linker (human)
T1 construct: Single-chain soluble construct; also called recombinant human CD3
T1 chain: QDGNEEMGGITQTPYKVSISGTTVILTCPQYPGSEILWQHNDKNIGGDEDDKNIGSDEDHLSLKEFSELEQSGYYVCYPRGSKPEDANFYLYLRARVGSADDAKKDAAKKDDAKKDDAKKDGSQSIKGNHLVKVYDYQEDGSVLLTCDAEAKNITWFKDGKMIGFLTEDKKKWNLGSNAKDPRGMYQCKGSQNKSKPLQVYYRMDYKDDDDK


Key:
[1] = target: T1, Human CD3eg linker; assay: SPR Biacore 8K, Ab captured on anti-human Fc, CD3 as analyte, 25 C
Procedure: (§1) Binding affinity of Dual-Ig antibodies to human CD3 were assessed at 25 degrees C. using Biacore 8K instrument (GE Healthcare). Anti-human Fc (GE Healthcare) was immobilized onto all flow cells of a CM4 sensor chip using amine coupling kit (GE Healthcare). Antibodies were captured onto the anti-Fc sensor surfaces, then recombinant human CD3 or CD137 was injected over the flow cell. All antibodies and analytes were prepared in ACES pH 7.4 containing 20 mM ACES, 150 mM NaCl, 0.05% Tween 20, 0.005% NaN₃. Sensor surface was regenerated each cycle with 3M MgCl₂. […] CD137 binding affinity assay was conducted in same condition except assay temperature was set at 37 degrees C.

[2] = target: T2, Human CD137 extracellular domain (ECD) (human); assay: SPR Biacore 8K, Ab captured on anti-human Fc, CD137 as analyte, 37 C
T2 construct: also called Human CD137 ECD; recombinant human CD137
Procedure: as §1

[3] = target: T1, Human CD3eg linker; assay: SPR Biacore 8K, Ab captured on anti-human Fc, CD3 as analyte, 25 C
Procedure: (§2) Binding affinity of Dual-Fab antibodies (Dual-Ig) to human CD3 were assessed at 25 degrees C. using Biacore 8K instrument (GE Healthcare). Anti-human Fc (GE Healthcare) was immobilized onto all flow cells of a CM4 sensor chip using amine coupling kit (GE Healthcare). Antibodies were captured onto the anti-Fc sensor surfaces, then recombinant human CD3 or CD137 was injected over the flow cell. All antibodies and analytes were prepared in ACES pH 7.4 containing 20 mM ACES, 150 mM NaCl, 0.05% Tween 20, 0.005% NaN₃. Sensor surface was regenerated each cycle with 3M MgCl₂. […] CD137 binding affinity assay was conducted in same condition except assay temperature was set at 37 degrees C.

[4] = target: T2, Human CD137 extracellular domain (ECD); assay: SPR Biacore 8K, Ab captured on anti-human Fc, CD137 as analyte, 37 C; remark: listed apart in the source
Procedure: as §2

[5] = target: T2, Human CD137 extracellular domain (ECD); assay: SPR Biacore 8K, 37 C; reference xGPC3/DualAE05-xSG1350kSG1349hV11
Procedure: as §1
(§3) This is caused by faster off rate in FAST-Ig construct. […] This is caused by faster off rate in FAST-Ig construct.

[6] = target: T1, Human CD3eg linker; assay: SPR Biacore 8K, 25 C; reference xGPC3/DualAE05-xSG1350kSG1349hV11
Procedure: as §1, §3

T2 sequence (chain, as listed by the source limits assumed): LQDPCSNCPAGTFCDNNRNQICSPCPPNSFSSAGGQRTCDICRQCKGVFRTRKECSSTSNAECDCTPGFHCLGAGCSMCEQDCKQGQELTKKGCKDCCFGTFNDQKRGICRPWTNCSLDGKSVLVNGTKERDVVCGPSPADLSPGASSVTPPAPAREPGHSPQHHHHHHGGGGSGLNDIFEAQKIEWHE

Binder	Kd [1] [nM]	koff [1] [s⁻¹]	kon [1] [M⁻¹ s⁻¹]	Kd [2] [nM]	koff [2] [s⁻¹]	kon [2] [M⁻¹ s⁻¹]	Kd [3] [nM]	koff [3] [s⁻¹]	kon [3] [M⁻¹ s⁻¹]	Kd [4] [nM]	koff [4] [s⁻¹]	kon [4] [M⁻¹ s⁻¹]	fold weaker binding affinity than CrossMab prepared antibodies [5] [fold]	fold weaker binding affinity than CrossMab xSG1350 [6] [fold]
xGPC3/DualAE05-xSG1350k1349hV11 (bispecific antibody, V domains shown, 1+1 tri-specific, CrossMab format (VH/VL of the GPC3 arm exchanged, charge mutations in CH1/CL of the Dual arm); also called xGPC3/DualAE05-xSG1350kSG1349hV11; AE05 CrossMab) VH 1: QVQLVQSGAEVKKPGASVTVSCKASGYTFTDYEMHWIRQPPGEGLEWIGAIDGPTPDTAYSEKFKGRVTLTADKSTSTAYMELSSLTSEDTAVYYCTRFYSYTYWGQGTLVTVSS VL 1: DIVMTQSPLSLPVTPGEPASISCRSSQPLVHSNRNTYLHWYQQKPGQAPRLLIYKVSNRFSGVPDRFSGSGSGTDFTLKISRVEAEDVGVYYCGQGTQVPYTFGQGTKLEIK VH 2: QVQLVESGGGLVQPGRSLRLSCAASGFKFSNVWFHWVRQAPGKGLEWVAQIKDYYNAYAAYYAPSVKGRFTISRDDSKNSIYLQMNSLKTEDTAVYYCHYVHYASASTLLPAEGVDAWGQGTTVTVSS VL 2: DIVMTQSPLSLPVTPGEPASISCQPSQEVVHMNRNTYLHWYQQKPGQAPRLLIYKVSNRFPGVPDRFSGSGSGTDFTLKISRVEAEDVGVYYCAQGTSHPFTFGQGTKLEIK	296	0.0275	92900	40.5	0.000525	13000								
H1572L0581 (antibody, V domains shown, Dual-Ig with an Fc; also called DualAE26; dBBDu183H1572/dBBDu072L0581) VH: QVQLVESGGGLVQPGRSLRLSCAASGFKFSNVWFHWVRQAPGKGLEWVAQIKDKYNAYAAYYAPSVKGRFTISRDDSKNSIYLQMNSLKTEDTAVYYCHYVHYASASTLLPAEGVDAWGQGTTVTVSS VL: DIVMTQSPLSLPVTPGEPASISCQPSQEVVHMNRNTYLHWYQQKPGQAPRLLIYKVSNRFPGVPDRFSGSGSGTDFTLKISRVEAEDVGVYYCAQGTSHPFTFGQGTKLEIK							286	0.028	97700	52.1	0.000722	13900		
GPC3/DualAE05-SG1363k1364hV11 (bispecific antibody, V domains shown, 1+1 tri-specific, FAST-Ig format) VH 1: QVQLVQSGAEVKKPGASVTVSCKASGYTFTDYEMHWIRQPPGEGLEWIGAIDGPTPDTAYSEKFKGRVTLTADKSTSTAYMELSSLTSEDTAVYYCTRFYSYTYWGQGTLVTVSS VL 1: DIVMTQSPLSLPVTPGEPASISCRSSQPLVHSNRNTYLHWYQQKPGQAPRLLIYKVSNRFSGVPDRFSGSGSGTDFTLKISRVEAEDVGVYYCGQGTQVPYTFGQGTKLEIK VH 2: QVQLVESGGGLVQPGRSLRLSCAASGFKFSNVWFHWVRQAPGKGLEWVAQIKDYYNAYAAYYAPSVKGRFTISRDDSKNSIYLQMNSLKTEDTAVYYCHYVHYASASTLLPAEGVDAWGQGTTVTVSS VL 2: DIVMTQSPLSLPVTPGEPASISCQPSQEVVHMNRNTYLHWYQQKPGQAPRLLIYKVSNRFPGVPDRFSGSGSGTDFTLKISRVEAEDVGVYYCAQGTSHPFTFGQGTKLEIK	314	0.0278	88500	79.5	0.00102	12800							~2	
GPC3/DualAE05-SG1364k1363hV11 (bispecific antibody, V domains shown, 1+1 tri-specific, FAST-Ig format; Same variable regions as m28, different constant-region charge mutations; Full chains not tied by name) VH 1: QVQLVQSGAEVKKPGASVTVSCKASGYTFTDYEMHWIRQPPGEGLEWIGAIDGPTPDTAYSEKFKGRVTLTADKSTSTAYMELSSLTSEDTAVYYCTRFYSYTYWGQGTLVTVSS VL 1: DIVMTQSPLSLPVTPGEPASISCRSSQPLVHSNRNTYLHWYQQKPGQAPRLLIYKVSNRFSGVPDRFSGSGSGTDFTLKISRVEAEDVGVYYCGQGTQVPYTFGQGTKLEIK VH 2: QVQLVESGGGLVQPGRSLRLSCAASGFKFSNVWFHWVRQAPGKGLEWVAQIKDYYNAYAAYYAPSVKGRFTISRDDSKNSIYLQMNSLKTEDTAVYYCHYVHYASASTLLPAEGVDAWGQGTTVTVSS VL 2: DIVMTQSPLSLPVTPGEPASISCQPSQEVVHMNRNTYLHWYQQKPGQAPRLLIYKVSNRFPGVPDRFSGSGSGTDFTLKISRVEAEDVGVYYCAQGTSHPFTFGQGTKLEIK	282	0.0263	93400	54.7	0.000745	13600							~2	
H0883 (antibody, V domains shown, Dual-Ig with an Fc; also called DualAE27; dBBDu183H0883/dBBDu072L) VH: QVQLVESGGGLVQPGRSLRLSCAASGFTFSNAWMHWVRQAPGKGLEWVAQIKDKGNAYAAYYAPSVKGRFTISRDDSKNSIYLQMNSLKTEDTAVYYCRYVHYASASTLLPAFGVDAWGQGTTVTVSS VL: DIVMTQSPLSLPVTPGEPASISCQASQELVHMNRNTYLHWYQQKPGQAPRLLIYKVSNRFPGVPDRFSGSGSGTDFTLKISRVEAEDVGVYYCAQGTSVPFTFGQGTKLEIK							110	0.00999	90700					
GPC3EK/DualAE05KE-SG1365k1363hV11 (bispecific antibody, V domains shown, 1+1 tri-specific, FAST-Ig format; Full chains not tied by name) VH 1: QVQLVQSGAEVKKPGASVTVSCKASGYTFTDYEMHWIREPPGEGLEWIGAIDGPTPDTAYSEKFKGRVTLTADKSTSTAYMELSSLTSEDTAVYYCTRFYSYTYWGQGTLVTVSS VL 1: DIVMTQSPLSLPVTPGEPASISCRSSQPLVHSNRNTYLHWYQKKPGQAPRLLIYKVSNRFSGVPDRFSGSGSGTDFTLKISRVEAEDVGVYYCGQGTQVPYTFGQGTKLEIK VH 2: QVQLVESGGGLVQPGRSLRLSCAASGFKFSNVWFHWVRKAPGKGLEWVAQIKDYYNAYAAYYAPSVKGRFTISRDDSKNSIYLQMNSLKTEDTAVYYCHYVHYASASTLLPAEGVDAWGQGTTVTVSS VL 2: DIVMTQSPLSLPVTPGEPASISCQPSQEVVHMNRNTYLHWYQEKPGQAPRLLIYKVSNRFPGVPDRFSGSGSGTDFTLKISRVEAEDVGVYYCAQGTSHPFTFGQGTKLEIK	751	0.0628	83500	43.5	0.00063	14500								~3
H0888L0581 (antibody, V domains shown, Dual-Ig with an Fc; also called DualAE02; dBBDu183H0888/dBBDu072L0581) VH: QVQLVESGGGLVQPGRSLRLSCAASGFKFSNVWMHWVRQAPGKGLEWVAQIKDKWNAYAAYYAPSVKGRFTISRDDSKNSIYLQMNSLKTEDTAVYYCHYIHYASASTLLPAFGIDAWGQGTTVTVSS VL: DIVMTQSPLSLPVTPGEPASISCQPSQEVVHMNRNTYLHWYQQKPGQAPRLLIYKVSNRFPGVPDRFSGSGSGTDFTLKISRVEAEDVGVYYCAQGTSHPFTFGQGTKLEIK							20.2	0.00192	95000	208	0.00311	15000		
H1644L0939 (antibody, V domains shown, Dual-Ig with an Fc; also called DualAE16; dBBDu183H1644/dBBDu072L0939) VH: QVQLVESGGGLVQPGRSLRLSCAASGFVFSNVWFHWVRQAPGKGLEWVAQIKDYYNAYAAYYAPSVKGRFTISRDDSKNSIYLQMNSLKTEDTAVYYCHYVHYASASTLLPAEGVDAWGQGTTVTVSS VL: DIVMTQSPLSLPVTPGEPASISCQPSQEVVHMNRNTYLHWYQQKPGQAPRLLIYKVSNVFPGVPDRFSGSGSGTDFTLKISRVEAEDVGVYYCAQGTHHPFTFGQGTKLEIK							1450	0.0808	55800	36.8	0.000444	12100		
H1573L0581 (antibody, V domains shown, Dual-Ig with an Fc; also called DualAE07; dBBDu183H1573/dBBDu072L0581) VH: QVQLVESGGGLVQPGRSLRLSCAASGFKFSNVWFHWVRQAPGKGLEWVAQIKDYYNAYAAYYAPSVKGRFTISRDDSKNSIYLQMNSLKTEDTAVYYCHYVHYASASTLLPAFGVDAWGQGTTVTVSS VL: DIVMTQSPLSLPVTPGEPASISCQPSQEVVHMNRNTYLHWYQQKPGQAPRLLIYKVSNRFPGVPDRFSGSGSGTDFTLKISRVEAEDVGVYYCAQGTSHPFTFGQGTKLEIK							158	0.0188	121000	70.6	0.00103	14600		
H1595L0581 (antibody, V domains shown, Dual-Ig with an Fc; also called DualAE24; dBBDu183H1595/dBBDu072L0581) VH: QVQLVESGGGLVQPGRSLRLSCAASGFKFSNTWMHWVRQAPGKGLEWVAQIKDKYNAYAAYYAPSVKGRFTISRDDSKNSIYLQMNSLKTEDTAVYYCHYIHYASASTLLPAFGVDAWGQGTTVTVSS VL: DIVMTQSPLSLPVTPGEPASISCQPSQEVVHMNRNTYLHWYQQKPGQAPRLLIYKVSNRFPGVPDRFSGSGSGTDFTLKISRVEAEDVGVYYCAQGTSHPFTFGQGTKLEIK							57	0.00658	116000	195	0.00269	13800		
H1579L0581 (antibody, V domains shown, Dual-Ig with an Fc; also called DualAE25; dBBDu183H1579/dBBDu072L0581) VH: QVQLVESGGGLVQPGRSLRLSCAASGFKFSHVWFHWVRQAPGKGLEWVAQIKDKYNAYAAYYAPSVKGRFTISRDDSKNSIYLQMNSLKTEDTAVYYCHYVHYASASTLLPAFGVDAWGQGTTVTVSS VL: DIVMTQSPLSLPVTPGEPASISCQPSQEVVHMNRNTYLHWYQQKPGQAPRLLIYKVSNRFPGVPDRFSGSGSGTDFTLKISRVEAEDVGVYYCAQGTSHPFTFGQGTKLEIK							273	0.034	124000	275	0.00406	14800		
